The record followed here is US20250019448A1 (BIOCOMPLETE, published 2025).

The chains are these.
B1: #47 antibody (IgG form) (antibody, V domains shown)
VH: QVQLVQSGGGVVQPGSSLRLSCEASGFAIGDNALNWVRQAPGKGLEWVGYIRSNSYGGTAEYAASVKGRFTISKDESKNIAYLEMNSLRAEDTAVYYCARRAHYYDGSTYNPSWYFDLWGRGTLVTVSS
VL: EIVLTQSPSFLSASVGDRVTITCRASQDISRRLAWYQQKPGKAPKLLIYGASNLASGVPSRFTGSGSGTEFTLTISSLQPDDFATYYCQQGYSSPRTFGQGTKVDIK
B2: #40 antibody (IgG form) (antibody, V domains shown)
VH: QVQLVQSGGGVVQPGSSLRLSCEASGFAIGDNALNWVRQAPGKGLEWVGYIRSNSYGGTAEYAASVKGRFTISRDESKNIAYLEMNSLRAEDTAVYYCARRAHYYGGSTYNPSWYFDLWGRGTPVTVSS
VL: EIVLTQSPSFLSASVGDRVTITCRASQDISRRLAWYQRKPGKAPKLLIYGASNLASGVPSRFTGSGSGTEFTLTISSLQSDDFATYYCQQGYSSPRTFGQGTKVDIK
B3: #42 antibody (IgG form) (antibody, V domains shown)
VH: QVRLVQSGAEVKKPGASVKVSCRASGYTFASYDIHWVRQAPGQGPEWMGMINPAGGSTLYAEGFEGRLTMTRDRSMSTAYMELSSLRSEDTAVYYCARTPSQTYELDYWGQGTLVTVSS
VL: ETTLTQSPSSLSASVGDRVTITCRASQGIRNDLAWYQQKPGKAPKLLIYAASTLESGVPPRFSGSGSETDFTLTLIRLQPDDFATYYCLQSFSTPYTFGQGTQLTVL

The experiment has as its target T1, SMO (smoothened) protein (Homo sapiens (Human), UniProt Q99835 28-787).
T1 construct: Endogenous SMO on HCT116 and SKOV3 cancer cells; also called SMO in HCT116 cells; SMO receptor
The experiment is described as follows: flow cytometry on HCT116 cells, 10 µg antibody, Alexa 594 secondary antibody. As to the method:
The binding affinity of the SMO-binding antibodies in HCT116 colon cancer cells was analyzed by flow cytometry. After blocking the HCT116 cells with BSA for 30 minutes, 10 μg of the SMO-binding antibody was bound and incubated for 1 hour at room temperature. One hour later, the cells were washed with PBS, reacted with 2 μL of Alexa 594 secondary antibody, and then incubated for 1 hour at room temperature. One hour later, the cells were washed with PBS to remove non-specific binding, and the binding ability of the SMO-binding antibodies was analyzed by flow cytometry.
On the technique in general: In flow cytometry, cells or beads pass a laser one at a time.
B1: the binding result is “binds”.
For B2, the binding result is “binds”.
B3: the binding result is “binds”.
